# Laboratory results taken from publication PMC11598966.
# Legend:
# [1] = molecular target: Rhinovirus C15 (RV-C15) virus particles (rhinovirus C15); experiment: ELISA; RV-C15 coated on the plate; native SP-A or recombinant SP-A variants at a single concentration of 10 µg/mL, with 5 mM CaCl2; A490 nm
# [2] = molecular target: Rhinovirus C15 (RV-C15) virus particles (rhinovirus C15)
# [3] = molecular target: Rhinovirus C15 (RV-C15) virus particles (rhinovirus C15); experiment: ELISA
Substance,A490nm at 10 µg/mL [1],"RV-C15-GFP viral copy numbers in NECs at 48 h with rSP-A2 [A91, Q223] at 400 µg/mL, percent of RV-C15-GFP infection control (% of RV-C15-GFP infection control) [2]","RV-C15-GFP viral copy numbers in NECs at 48 h with rSP-A2 [A91, K223] at 400 µg/mL, percent of RV-C15-GFP infection control (% of RV-C15-GFP infection control) [2]",A490nm at 10 µg/mL [3]
"Recombinant SP-A2 [P91, K223] (from UniProt Q8IWL1 21-248) (natural protein)",1.67 A490nm,,,
"Recombinant SP-A2 [A91, Q223] (from UniProt Q8IWL1 21-248) (natural protein)",0.19 A490nm,54.8,,
"Recombinant SP-A2 [A91, K223] (from UniProt Q8IWL1 21-248) (natural protein)",1.19 A490nm,,40.2,
Native surfactant protein A (SP-A) (from UniProt Q8IWL2 21-248; Q8IWL1 21-248) (complex),,,,2.01 A490nm
"Recombinant SP-A2 [P91, Q223] (from UniProt Q8IWL1 21-248) (natural protein)",,,,1.61 A490nm
